Our source for the 试纸条灵敏度 (lowest NP concentration detected) and ELISA titre (dilution still positive) (fold dilution) values is patent publication CN118126168A.

Substrate in assay [1]: 禽流感病毒NP蛋白 (avian influenza virus)
Substrate in assay [2]: 禽流感病毒NP蛋白 (avian influenza virus)
The experiment in a line: indirect ELISA. Background: In an ELISA, binding on a coated surface is turned into a signal by an enzyme label.

B1: 禽流感病毒NP蛋白的单克隆抗体 (antibody, V domains shown)
VH: EVRLQESRPELVEPGASVKISCNASAYTFSDYWMNCVKQSHGKSLECIGDISPTYDRTSYNHKFKGYATLTVDKSSSSAYIELRSLTSDDSAVYYCARGGYGNYRDYWGKRTTRTVSS
VL: MKYLLATAAAGILLLAAQPAMADVVMSQTTRTLSVSIEQPASISCKSSQSLLHSDGKSYLNWLLQRPRQSPKCLSYLVSRRDSGVPDRVTGSSSGTDVTLGISSVEAEDLRVYYYWQRTHCPITVGSGTKLDIK
As to B1, in assay [1], the 试纸条灵敏度 (lowest NP concentration detected) came to 0.18 µg/mL. Also, in assay [2], the ELISA titre (dilution still positive) (fold dilution) is more than 102000.
